Test results: publication PMC7158967, “Comparative evaluation of ^68Ga-labelled TATEs: the impact of chelators on imaging” (EJNMMI Research, 2020)
Read-outs that look alike come from different tables or passages of the source.

Key:
[1] = cited from earlier work
[2] = Lipid-water partition (log Po/w), octanol water system; format: physicochemical
Method: The lipid-water partition (logP) of ^68Ga-labelled complexes was determined in the octanol water system by following the procedure mentioned below. In brief, 490 μL of ultrapure water was added to each of three centrifuge tubes containing 0.5 mL of saturated n-octanol and then combined with 10 μL (1.85 MBq/0.05 mCi) of freshly prepared radiolabelled complexes by ultrasonication (3 min). The centrifuge tube was allowed to stand for approximately 1 min for the liquid to become stratified. The upper and lower liquids were defined as groups A (A1, A2, A3) and B (B1, B2, B3), accounting for the organic and aqueous phases, respectively. Then, 0.1 mL was retrieved from each of the 6 sections. The radioactivity (CPM) of both phases was determined using a gamma counter, and the lipid-water partition coefficient was calculated as follows: logP = log (A-background)/(B-background). The average of three tubes was recorded as the logP.

[3] = format: in vitro ADME; details: human
Method: In vitro serum binding studies for both ^68Ga-labelled NOTA-TATE and DOTA-TATE were carried out by following a generalized procedure summarized below. One millilitre of fresh anticoagulated (heparinized) human plasma was prepared. Freshly labelled compound (3.7 MBq, 0.1 mCi) was added to three centrifuge tubes, each containing 0.1 mL of human plasma. After incubation at 37 °C for 2 h, 1 mL of ice-cold methanol was added to each tube. The mixtures were separated by centrifugation (5 min, 3000 rpm) to collect the supernatant, which was repeated three times. A gamma counter was then used to measure the radioactivity of the supernatant (A) and the precipitate (B) in counts per minute (CPM); the plasma-protein binding rate was calculated as PPB = B/(A + B)100%, and the average of three tubes was recorded.

[4] = Biodistribution in AR42J tumour-bearing nude mice; details: mouse, in vivo
Method: (§1) Tumour cells were subcutaneously injected into the left forelimb of each nude mouse. Biodistribution and imaging studies were conducted when the tumour volume reached at least 1.0 × 1.0 × 1.0 cm^3.

[5] = Micro-PET/CT imaging of AR42J tumour-bearing nude mice; details: both sexes, nude, mouse, in vivo, iv, 2.96 MBq, total radioactivity
Method: as §1
(§2) Six (3 female and 3 male) mice with AR42J tumour xenografts (15–20 g) were used in the imaging study. All tumour-bearing mice were anaesthetized by intranasal inhalation of isoflurane. […] Images were acquired and reconstructed using micro-PET/CT at 30 min and 2 h after intravenous injection.

[6] = tested on: AR42J tumour-bearing mice; assay: as above; details: mouse, in vivo
Method: as §1, §2

[7] = clinical; details: human, in vivo, total radioactivity
Method: (§3) Twenty-two healthy volunteers gave informed consent and agreed to participate in the study. […] Each patient was injected with an average activity of 1.9 MBq/kg. The timing of image acquisition ranged from 30 to 45 min after injection (3 min/bed position). The PET image was attenuated and then reconstructed using the iterative reconstruction algorithm implemented.

[8] = tested on: healthy volunteers; assay: clinical; details: human, in vivo
Method: as §3

[9] = tested on: SSTR2; set-up: method as in PMID 28864614; details: read-out: half inhibitory concentration (IC50) on SSTR2; cited from earlier work

For O=C(O)CN1CCN(CC(=O)O)CCN(CC(=O)O)CCN(CC(=O)O)CC1 [DOTA, 1,4,7,10-tetraazacyclododecane-1,4,7,10-tetraacetic acid], the “log stability constant of the ^68Ga complex” value ([1]; DOTA ^68Ga complex, pseudo-octahedral geometry) is given as 21.33.

For O=C(O)CN1CCN(CC(=O)O)CCN(CC(=O)O)CC1 [NOTA, 1,4,7-triazacyclononane-1,4,7-triacetic acid], the “log stability constant of the ^68Ga complex” value ([1]; NOTA ^68Ga complex, octahedral) is listed as 30.98.

For C[C@@H](O)[C@H](NC(=O)[C@@H]1CSSC[C@H](NC(=O)[C@@H](Cc2ccccc2)NC(=O)CN2CCN(CC(=O)O)CCN(CC(=O)O)CCN(CC(=O)O)CC2)C(=O)N[C@@H](Cc2ccc(O)cc2)C(=O)N[C@H](Cc2c[nH]c3ccccc23)C(=O)N[C@@H](CCCCN)C(=O)N[C@@H]([C@@H](C)O)C(=O)N1)C(=O)O [^68Ga-DOTA-TATE, metal not drawn], the “log Po/w (partition coefficient)” value [2] was “− 2.72 ± 0.16”, the fraction unbound [3] was 0.694 and the tissue uptake at 0.25 h ([4]; %ID/g Blood) was 3.03 ± 1.96 %ID/g. For the same molecule, the tissue uptake at 1 h ([4]; %ID/g Blood) was 0.35 ± 0.2 %ID/g, the tissue uptake at 2 h ([4]; %ID/g Blood) was 0.05 ± 0.02 %ID/g and the tissue uptake at 0.25 h ([4]; %ID/g Gallbladder) was 1.47 ± 0.62 %ID/g. The tissue uptake at 0.25 h ([4]; %ID/g Intestines) was 1.56 ± 1.47 %ID/g, the tissue uptake at 0.5 h ([4]; %ID/g Intestines) was 1.58 ± 1.77 %ID/g and the tissue uptake at 2 h ([4]; %ID/g Intestines) was 0.23 ± 0.15 %ID/g. For the same molecule, the tissue uptake at 0.25 h ([4]; %ID/g Kidney) was 10.3 ± 8.89 %ID/g, the tissue uptake at 0.5 h ([4]; %ID/g Kidney) was 8.12 ± 2.71 %ID/g and the tissue uptake at 1 h ([4]; %ID/g Kidney) was 2.82 ± 2.54 %ID/g. The tissue uptake at 2 h ([4]; %ID/g Kidney) was 1.49 ± 0.57 %ID/g, the tissue uptake at 0.25 h ([4]; %ID/g Liver) was 1.27 ± 0.77 %ID/g and the tissue uptake at 0.5 h ([4]; %ID/g Liver) was 0.61 ± 0.35 %ID/g. The tissue uptake at 1 h ([4]; %ID/g Liver) was 0.34 ± 0.25 %ID/g, the tissue uptake at 2 h ([4]; %ID/g Liver) was 0.08 ± 0.07 %ID/g and the tissue uptake at 0.5 h ([4]; %ID/g Lungs) was 2.86 ± 1.47 %ID/g. It also gave a tissue uptake at 1 h ([4]; %ID/g Lungs) of 4.62 ± 3.42 %ID/g, a tissue uptake at 2 h ([4]; %ID/g Lungs) of 0.98 ± 0.22 %ID/g and a tissue uptake at 0.25 h ([4]; %ID/g Muscle) of 1.18 ± 1.26 %ID/g. It also gave a tissue uptake at 2 h ([4]; %ID/g Muscle) of 0.04 ± 0.01 %ID/g, a tissue uptake at 0.25 h ([4]; %ID/g Skeleton) of 1.94 ± 0.81 %ID/g and a tissue uptake at 0.5 h ([4]; %ID/g Skeleton) of 1.1 ± 0.63 %ID/g. For the same molecule, the tissue uptake at 1 h ([4]; %ID/g Skeleton) was 0.8 ± 0.73 %ID/g, the tissue uptake at 2 h ([4]; %ID/g Skeleton) was 0.17 ± 0.06 %ID/g and the tissue uptake at 0.25 h ([4]; %ID/g Spleen) was 3.84 ± 4.03 %ID/g. It also gave a tissue uptake at 0.5 h ([4]; %ID/g Spleen) of 1.48 ± 0.84 %ID/g, a tissue uptake at 1 h ([4]; %ID/g Spleen) of 1.92 ± 1.75 %ID/g and a tissue uptake at 2 h ([4]; %ID/g Spleen) of 0.21 ± 0.19 %ID/g. It also gave a tissue uptake at 0.25 h ([4]; %ID/g Stomach) of 4.24 ± 2.66 %ID/g, a tissue uptake at 0.5 h ([4]; %ID/g Stomach) of 0.98 ± 0.49 %ID/g and a tissue uptake at 1 h ([4]; %ID/g Stomach) of 4.26 ± 2.58 %ID/g. The tissue uptake at 0.5 h ([4]; %ID/g Tumour) was 3.62 ± 1.94 %ID/g, the tissue uptake at 1 h ([4]; %ID/g Tumour) was 3.14 ± 2.07 %ID/g and the tissue uptake at 2 h ([4]; %ID/g Tumour) was 2.3 ± 1.34 %ID/g. For the same molecule, the SUV at 0.5 h [5] was 2.87 SUV, the SUV at 2 h [5] was 1.83 SUV and the “gallbladder radioactivity on micro-PET/CT” value [6] was “minimal gallbladder activity”. For the same molecule, the SUV ([7]; both sexes, 1.9 MBq/kg, SUVmax Adrenals, average) was 15.2 SUV, the SUV ([7]; both sexes, 1.9 MBq/kg, SUVmax Blood pool, average) was 0.9 SUV and the SUV ([7]; both sexes, 1.9 MBq/kg, SUVmax Bone marrow, average) was 0.8 SUV. It also gave an SUV ([7]; both sexes, 1.9 MBq/kg, SUVmax Kidneys, average) of 14.5 SUV, an SUV ([7]; both sexes, 1.9 MBq/kg, SUVmax Large bowel, average) of 2.2 SUV and an SUV ([7]; both sexes, 1.9 MBq/kg, SUVmax Liver, average) of 10.1 SUV. It also gave an SUV ([7]; both sexes, 1.9 MBq/kg, SUVmax Lungs, average) of 0.8 SUV, an SUV ([7]; both sexes, 1.9 MBq/kg, SUVmax Lymph nodes, average) of 1.1 SUV and an SUV ([7]; both sexes, 1.9 MBq/kg, SUVmax Palatine tonsil, average) of 2.6 SUV. The SUV ([7]; both sexes, 1.9 MBq/kg, SUVmax Pancreas, average) was 6.2 SUV, the SUV ([7]; both sexes, 1.9 MBq/kg, SUVmax Small bowel, average) was 3.4 SUV and the SUV ([7]; both sexes, 1.9 MBq/kg, SUVmax Spleen, average) was 26.9 SUV. It also gave an SUV ([7]; both sexes, 1.9 MBq/kg, SUVmax Stomach, average) of 6.1 SUV, an SUV ([7]; both sexes, 1.9 MBq/kg, SUVmax Submandibular, average) of 3.4 SUV and an SUV ([7]; both sexes, 1.9 MBq/kg, SUVmax Thymus, average) of 1.2 SUV. The SUV ([7]; both sexes, iv, 1.9 MBq/kg, SUVmax Breast, average) was 0.6 SUV, the SUV ([7]; iv, 2.52 mCi, SUVmax kidney, single volunteer) was 13.9 SUV and the SUV ([7]; iv, 2.52 mCi, SUVmax liver, single volunteer) was 9.4 SUV. For the same molecule, the SUV ([7]; iv, 2.52 mCi, SUVmax pituitary, single volunteer) was 7.74 SUV, the SUV ([7]; iv, 2.52 mCi, SUVmax spleen, single volunteer) was 25.5 SUV and the SUV ([7]; iv, 2.8 mCi, SUVmax liver, single volunteer) was 7.8 SUV. The SUV ([7]; iv, 2.8 mCi, SUVmax spleen, single volunteer) was 16.3 SUV, the “SUVmax Blood pool, range” value [8] was 0.6~1.4 and the “SUVmax Bone marrow, range” value [8] was 0.5~1.3. The “SUVmax Kidneys, range” value [8] was 11.2~17.8, the “SUVmax Large bowel, range” value [8] was 1.6~3.7 and the “SUVmax Lungs, range” value [8] was 0.5~1.3. For the same molecule, the “SUVmax Palatine tonsil, range” value [8] was 1.2~4.1, the “SUVmax Parotid gland, range” value [8] was 1.9~5.4 and the “SUVmax Pituitary gland, range” value [8] was 2.4~7.9. The “SUVmax Small bowel, range” value [8] was 2.2~4.9, the “SUVmax Spleen, range” value [8] was 20.1~33.5 and the “SUVmax Stomach, range” value [8] was 3.1~8.3. For the same molecule, the “SUVmax Submandibular, range” value [8] was 1.7~5.7, the “SUVmax Thymus, range” value [8] was 0.7~1.5 and the “SUVmax kidneys, single value” [8] was 17.8. The “SUVmax lung tissue, single value” [8] was 1.3, the “SUVmax pituitary gland, single value” [8] was 7.9 and the “SUVmax spleen, single value” [8] was 33.5. For the same molecule, the “SUVmax stomach wall, single value” [8] was 8.3, the “radioactivity in the gallbladder” value [8] was “No radioactivity was seen” and the “uptake in the brain” value [8] was “not taken up in the brain”. The IC50 [9] was […].
